Here are results for two substances from patent US20210102195A1.

For orientation: EC50 means the concentration at which the effect is half-maximal. The low end stands for greater potency, the high end for weaker potency. In general, Kd refers to the equilibrium constant for the complex coming apart. A low value points to tighter binding.

The target in assay [1] is human CD3 epsilon (human) (UniProt P07766). Put plainly: flow cytometry (MFI), titration 0.05-100 nM on CD8+ T cells (2903). (A flow cytometer gives signals particle by particle.)
The target is the same in assay [2]. Put plainly: flow cytometry (MFI), titration 0.05-100 nM on Jurkat cells (2901).
Assay [3] shares this target. In words: flow cytometry (MFI), titration 0.05-100 nM; cells not named on the panel, the same value stands for CD8+ T-Cell in FIG. 29F.
The target is the same in assay [4]. Put plainly: biosensor sensorgrams with fits, instrument not named in Example 14; antigen not printed on the panel: taken as human CD3 epsilon because 28G-28I and 28J-28L repeat the same three spots (57, 169, 205) and the text gives 67 nM (28G) for human and 107 nM (28J) for cyno.
Another assay addresses cyno CD3 epsilon (cyno) (UniProt Q95LI5). Put plainly: biosensor sensorgrams with fits, instrument not named in Example 14; antigen not printed on the panel: taken as cyno CD3 epsilon because 28G-28I and 28J-28L repeat the same three spots (57, 169, 205) and the text gives 67 nM (28G) for human and 107 nM (28J) for cyno.

Some results are limits rather than exact numbers.

human CD3 epsilon (human), sequence (P07766 23-126 limits assumed): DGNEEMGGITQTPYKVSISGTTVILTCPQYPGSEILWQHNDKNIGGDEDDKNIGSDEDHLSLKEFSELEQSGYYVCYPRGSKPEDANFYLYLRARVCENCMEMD
cyno CD3 epsilon (cyno), sequence (Q95LI5 22-117 limits assumed): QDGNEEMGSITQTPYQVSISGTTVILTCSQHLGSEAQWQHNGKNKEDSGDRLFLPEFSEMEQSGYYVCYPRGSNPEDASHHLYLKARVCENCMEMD

On to R&D MAB100 (antibody), for which the results for the EC50 in assay [1], in assay [2] and in assay [3] were 3.05 nM, 0.537 nM and 3.05 nM, respectively.
As to muSP34 (antibody), the Kd in assay [4] was below 0.0019 nM; with cyno CD3 epsilon (cyno) it was 38 nM.
